# Measured values: patent EP1481685A1
# Where two headings read alike, the source gives them in different places.
# Assays:
# Experiment in all cases: cell-based or functional assay
# [1] = biological target: adenylyl cyclase (AC) in rat spinal cord lysates / membranes (major isoforms AC type 5 and 6)
# [2] = biological target: adenylyl cyclase (AC) in rat spinal cord lysates / membranes (major isoforms AC type 5 and 6); remark: listed apart in the source
# [3] = biological target: adenylyl cyclase (AC) in rat dorsal root ganglia (DRG) lysates (predominant isoforms AC type 4 and 6)
substance,measurement,setting,value
"PAM (Protein Associated with Myc), full length, purified from HeLa cells (from UniProt O75592 1-4678)","inhibition of Gαs-stimulated AC activity, spinal cord lysates of control animals, 30 nM PAM (% inhibition at 30 nM)",[1],50
same,"inhibition of Gαs-stimulated AC activity, spinal cord lysates from animals treated 1 hour with formalin, 30 nM PAM (% inhibition at 30 nM)",[2],25
same,"inhibition of Gαs-stimulated AC activity, spinal cord lysates from rats 96 hours after zymosan injection, 30 nM PAM (% inhibition at 30 nM)",[2],70
same,"inhibition of Gαs-stimulated AC activity, spinal cord lysates of control animals, 30 nM PAM (% inhibition at 30 nM)",[2],49
same,"inhibition of Gαs-stimulated AC activity, spinal cord preparations of zymosan-treated animals",[2],75 % inhibition
same,"inhibition of Gαs-stimulated AC activity, DRG lysates, 30 nM PAM (% inhibition at 30 nM)",[3],32
